± gives the uncertainty stated by the source.

The data set is described as follows: self-splicing fitness, log relative to wild type (ln ratio); higher = more splicing; Tetrahymena group I intron in knt gene, E. coli kanamycin selection, DiMSum; sequences stand for … in CUCUCU…GGAGGGAAAAGUUAUCAGGCAUGCACCUGGUAGCUAGUCUUUAAACCAAUAGAUUGCAUCGGUUUAAAAGGCAAGACCGUCAAAUUGCGGGAAAGGGGUCAACAGCCGUUCAGUACCAAGUCUCAGGGGAAACUUUGAGAUGGCCUUGCAAAGGGUAUGGUAAUAAGCUGACGGACAUGGUCCUAACCACGCAGCCAAGUCCUAAGUCAACAGAUCUUCUGUUGAUAUGGAUGCAGUUCACAGACUAAAUGUCGGUCGGGGAAGAUGUAUUCUUCUCAUAAGAUAUAGUCGGACCUCUCCUUAAUGGGAGCUAGCGGAUGAAGUGAUGCAACACUGGAGCCGCUGGGAACUAAUUUGUAUGCGAAAGUAUAUUGAUUAGUUUUGGAGUACUCGUGGUCG
In a few lines: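 A randomised library covering all eight P1ex-region intron nucleotides was built with the intron in the knt kanamycin-resistance gene on pET-22b(+) and held in E. coli BL21(DE3). Cells were grown overnight at 37°C or 30°C on LB agar, with or without 25 μg/mL kanamycin, plus 100 μg/mL carbenicillin, 50 μM IPTG and 0.2% rhamnose, and pooled colonies were amplicon-sequenced on an Illumina HiSeq 2500. DiMSum fitness is the error-weighted combination of wild-type-normalised replicate fold changes, kanamycin versus none.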

As to CCCUAGCAAUAUUACGGAAU, the “self-splicing fitness (ln)” value is, setting by setting: (30 °C) -3.36 ± 0.37; (37 °C) -1.82 ± 0.31. Turning to GACGAGCAAUAUUACGAGAC, the “self-splicing fitness (ln)” value is -3.99 ± 0.28 (30 °C) and -1.95 ± 0.28 (37 °C). On the same counts, the results for UAGCAGCAAUAUUACGCUAA are -2.07 ± 0.26 and -1.73 ± 0.27. On the same counts, the results for CAGCAGCAAUAUUACGCAAU are -3.18 ± 0.24 and -1.29 ± 0.15. Take GUUCAGCAAUAUUACGCUGU: the “self-splicing fitness (ln)” value by setting is: (30 °C) -3.2 ± 0.17; (37 °C) -1.65 ± 0.12.

With CACUAGCAAUAUUACGAAUA, the “self-splicing fitness (ln)” value is, setting by setting: (30 °C) -3.16 ± 0.37; (37 °C) -2.33 ± 0.18. On the same counts, the results for AAAUAGCAAUAUUACGCUUU are -2.63 ± 0.15 and -1.09 ± 0.12. Consider CUAGAGCAAUAUUACGUACG, for which the “self-splicing fitness (ln)” value by setting is: (30 °C) -0.818 ± 0.082; (37 °C) 0.268 ± 0.12. On to AGACAGCAAUAUUACGACAG, for which the “self-splicing fitness (ln)” value is -3.42 ± 0.14 (30 °C) and -0.41 ± 0.12 (37 °C). Taken in the same sequence, the figures for UUCAAGCAAUAUUACGUGGU were -4.01 ± 0.2 and -2.7 ± 0.17. Turning to UCCCAGCAAUAUUACGUGAC, the “self-splicing fitness (ln)” value is, setting by setting: (30 °C) -2.74 ± 0.15; (37 °C) -3.06 ± 0.32. As for CUGCAGCAAUAUUACGGCCC, the “self-splicing fitness (ln)” value (30 °C) is -2.85 ± 0.36.

In the case of CUCGAGCAAUAUUACGGGUC, the “self-splicing fitness (ln)” value by setting is: (30 °C) -3.33 ± 0.28; (37 °C) -1.77 ± 0.31. Taken in the same sequence, the figures for UUCGAGCAAUAUUACGAUUA were -1.39 ± 0.26 and -0.875 ± 0.25. On the same counts, the results for UUGAAGCAAUAUUACGUAAU are -3.46 ± 0.21 and -1.06 ± 0.13.

Regarding AAGCAGCAAUAUUACGCUAC, the “self-splicing fitness (ln)” value is, setting by setting: (30 °C) -2.96 ± 0.24; (37 °C) -2.31 ± 0.24. Taken in the same sequence, the figures for CGUCAGCAAUAUUACGGGUU were -3.44 ± 0.17 and -2.56 ± 0.15. On to GCGCAGCAAUAUUACGGGUC, for which the “self-splicing fitness (ln)” value (30 °C) was -2.71 ± 0.11 and the “self-splicing fitness (ln)” value (37 °C) was -0.449 ± 0.092. Taken in the same sequence, the figures for CUCAAGCAAUAUUACGUAAG were -0.417 ± 0.054 and -0.102 ± 0.086. Turning to AAAAAGCAAUAUUACGACGC, the “self-splicing fitness (ln)” value was -0.27 ± 0.086 (30 °C) and -0.264 ± 0.1 (37 °C). On the same counts, the results for ACUGAGCAAUAUUACGAUGU are -2.83 ± 0.14 and -2.67 ± 0.2.

Consider GGUGAGCAAUAUUACGGCCA, for which the “self-splicing fitness (ln)” value (30 °C) is -1 ± 0.26 and the “self-splicing fitness (ln)” value (37 °C) is -0.395 ± 0.17. On the same counts, the results for AUUAAGCAAUAUUACGCCCU are -0.0606 ± 0.33 and -0.149 ± 0.28. As to CGUCAGCAAUAUUACGCCAG, the “self-splicing fitness (ln)” value was -0.944 ± 0.15 (30 °C) and -0.48 ± 0.23 (37 °C).

On to CCUGAGCAAUAUUACGCUUG, for which, under “37 °C”, the “self-splicing fitness (ln)” value was -1.23 ± 0.28. In the case of UUGGAGCAAUAUUACGCUCU, under “30 °C”, the “self-splicing fitness (ln)” value is -4.19 ± 0.39.

Take CUCUAGCAAUAUUACGAACG: the “self-splicing fitness (ln)” value (30 °C) is -0.887 ± 0.097 and the “self-splicing fitness (ln)” value (37 °C) is -0.112 ± 0.11. For the sequence CACGAGCAAUAUUACGGUGG, the “self-splicing fitness (ln)” value is, setting by setting: (30 °C) -2.15 ± 0.11; (37 °C) -2.33 ± 0.15. Regarding UCUGAGCAAUAUUACGGGCC, the “self-splicing fitness (ln)” value (30 °C) was -2.67 ± 0.35.

For the sequence AAGCAGCAAUAUUACGGUUC, the “self-splicing fitness (ln)” value is, setting by setting: (30 °C) -2.24 ± 0.097; (37 °C) -2.02 ± 0.12.

For the sequence CGCAAGCAAUAUUACGGGAA, the “self-splicing fitness (ln)” value is -2.96 ± 0.2 (30 °C) and -2.27 ± 0.19 (37 °C). On the same counts, the results for UACCAGCAAUAUUACGCCAU are -3.27 ± 0.22 and -2.85 ± 0.16. On the same counts, the results for CCGGAGCAAUAUUACGUGUA are -2.99 ± 0.2 and -2.61 ± 0.25. On to CCGAAGCAAUAUUACGAAAC, for which the “self-splicing fitness (ln)” value is, setting by setting: (30 °C) -3.12 ± 0.31; (37 °C) -2.46 ± 0.37.

As for UUUGAGCAAUAUUACGGUGU, the “self-splicing fitness (ln)” value (37 °C) is -2.7 ± 0.41. CGGGAGCAAUAUUACGGUUA: the “self-splicing fitness (ln)” value runs as follows: (30 °C) -3.42 ± 0.25; (37 °C) -2.69 ± 0.29. Take CUCUAGCAAUAUUACGUUCA: the “self-splicing fitness (ln)” value runs as follows: (30 °C) -3.66 ± 0.34; (37 °C) -3.02 ± 0.27.

As for GAACAGCAAUAUUACGUAGU, the “self-splicing fitness (ln)” value runs as follows: (30 °C) -1.55 ± 0.06; (37 °C) -0.106 ± 0.075. Regarding ACAGAGCAAUAUUACGGAGA, the “self-splicing fitness (ln)” value by setting is: (30 °C) -3.21 ± 0.26; (37 °C) -2.6 ± 0.29.

On to GAACAGCAAUAUUACGGAGC, for which the “self-splicing fitness (ln)” value runs as follows: (30 °C) -1.93 ± 0.057; (37 °C) -1.13 ± 0.083. Taken in the same sequence, the figures for UUAGAGCAAUAUUACGGAGU were -4.12 ± 0.39 and -2.9 ± 0.32. On the same counts, the results for AUCUAGCAAUAUUACGGAUA are -3 ± 0.46 and -2.05 ± 0.26. Turning to UUAGAGCAAUAUUACGUCCA, the “self-splicing fitness (ln)” value runs as follows: (30 °C) -1.31 ± 0.22; (37 °C) -1.71 ± 0.37.

For the sequence ACUCAGCAAUAUUACGGACC, the “self-splicing fitness (ln)” value (30 °C) was -0.551 ± 0.13 and the “self-splicing fitness (ln)” value (37 °C) turned out to be 0.137 ± 0.14.

In the case of CGGGAGCAAUAUUACGGAAU, the “self-splicing fitness (ln)” value is, setting by setting: (30 °C) -4.07 ± 0.46; (37 °C) -1.42 ± 0.43. Regarding ACCUAGCAAUAUUACGUCCU, the “self-splicing fitness (ln)” value reads like this: (30 °C) -0.685 ± 0.067; (37 °C) -0.579 ± 0.075. With GUAUAGCAAUAUUACGUGUG, the “self-splicing fitness (ln)” value by setting is: (30 °C) -3.28 ± 0.14; (37 °C) -2 ± 0.13.

With UGGCAGCAAUAUUACGCUGG, the “self-splicing fitness (ln)” value is -3.47 ± 0.33 (30 °C) and -2.53 ± 0.29 (37 °C). Taken in the same sequence, the figures for GAGCAGCAAUAUUACGCGAA were -3.01 ± 0.25 and -1.27 ± 0.15. Take GACGAGCAAUAUUACGCAAU: for the setting “37 °C”, the “self-splicing fitness (ln)” value is -2.74 ± 0.31. Regarding CAAGAGCAAUAUUACGCAGU, the “self-splicing fitness (ln)” value (30 °C) was -4 ± 0.46. As to UUGCAGCAAUAUUACGGGAC, the “self-splicing fitness (ln)” value is, setting by setting: (30 °C) -3.01 ± 0.25; (37 °C) -2.37 ± 0.39. AUGAAGCAAUAUUACGUGUG: the “self-splicing fitness (ln)” value (30 °C) is -1.18 ± 0.059 and the “self-splicing fitness (ln)” value (37 °C) is -0.763 ± 0.078. GACCAGCAAUAUUACGGAGU: the “self-splicing fitness (ln)” value runs as follows: (30 °C) -0.646 ± 0.077; (37 °C) 0.000468 ± 0.092. Taken in the same sequence, the figures for AAUUAGCAAUAUUACGUAGU were -2.9 ± 0.16 and -0.462 ± 0.1. With CCAAAGCAAUAUUACGCGAC, the “self-splicing fitness (ln)” value is, setting by setting: (30 °C) -4.37 ± 0.27; (37 °C) -2.87 ± 0.21. Taken in the same sequence, the figures for AAUCAGCAAUAUUACGAUGA were 0.103 ± 0.059 and 0.0645 ± 0.083. On to GUCUAGCAAUAUUACGCUAG, for which the “self-splicing fitness (ln)” value is, setting by setting: (30 °C) -2.97 ± 0.32; (37 °C) -2.31 ± 0.31. Taken in the same sequence, the figures for UACUAGCAAUAUUACGAAGU were -3.85 ± 0.42 and -2.32 ± 0.41.

As for GAGCAGCAAUAUUACGUUUU, the “self-splicing fitness (ln)” value reads like this: (30 °C) -2.63 ± 0.092; (37 °C) -2.3 ± 0.12.

Turning to CGUUAGCAAUAUUACGGAAC, the “self-splicing fitness (ln)” value (30 °C) is -3.05 ± 0.48 and the “self-splicing fitness (ln)” value (37 °C) was -2.4 ± 0.41. As to AUCAAGCAAUAUUACGGCUC, the “self-splicing fitness (ln)” value is -0.551 ± 0.063 (30 °C) and -0.7 ± 0.076 (37 °C).

The record behind these values is the supplement of paper PMC7877785.
